T1: amphyphisin SH3 (AMPH_HUMAN), P49418
T1 chain: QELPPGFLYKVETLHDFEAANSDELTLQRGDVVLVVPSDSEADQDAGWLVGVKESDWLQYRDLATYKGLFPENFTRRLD

The target in one assay is endophilin SH3 (SH3G2_HUMAN), Q99962. Nature of the assay: SPOT array.
Consider RSRSPGRPPKSARR [Q14739 82-96], for which the normalised SPOT signal, Boehringer light units (BLU); mean over the file's lines of this peptide was 3690.

Molecule RRRSPPRPPSRPAR [Q96JH1 1030-1044] came in with a normalised SPOT signal, Boehringer light units (BLU); mean over the file's lines of this peptide of 9450.

For RQPRPPRPPLGDRP [Q9Y5R2 356-370], the normalised SPOT signal, Boehringer light units (BLU); mean over the file's lines of this peptide came to 4010.

With RRARPRRPREAPAP [Q96Q34 14-27], the normalised SPOT signal, Boehringer light units (BLU); mean over the file's lines of this peptide is 144.

Regarding RRPALHRPIKVNLL [Q9NWI3 259-272], the normalised SPOT signal, Boehringer light units (BLU); mean over the file's lines of this peptide was found to be 109.

On to AVPPPSRPQRLSSL [Q9NU00 50-63], for which the normalised SPOT signal, Boehringer light units (BLU); mean over the file's lines of this peptide stood at 7470.

Regarding RSKSPRRPSPTARG [Q9BZW7 5-18], the normalised SPOT signal, Boehringer light units (BLU); mean over the file's lines of this peptide worked out at 121.

The molecule RRGSPRRPRLSSSS [P46092 337-350] displayed a normalised SPOT signal, Boehringer light units (BLU); mean over the file's lines of this peptide of 11.2.

The molecule AATQPLRPPRGTAA [P53814 641-654] returned a normalised SPOT signal, Boehringer light units (BLU); mean over the file's lines of this peptide of 1480.

As to RSRSLHRPAKTSEL [O95996 1839-1852], the normalised SPOT signal, Boehringer light units (BLU); mean over the file's lines of this peptide turned out to be 187.

RRNVPMKPPDEAKV [Q9H5Q5 226-240] gave a normalised SPOT signal, Boehringer light units (BLU); mean over the file's lines of this peptide of 147.

In turn, RSQTPERPAKKIRE [Q9Y2N3 421-434] displayed a normalised SPOT signal, Boehringer light units (BLU); mean over the file's lines of this peptide of 587.

As for RRSRLRRPAVRPTD [Q9BV18 42-55], the normalised SPOT signal, Boehringer light units (BLU); mean over the file's lines of this peptide worked out at 28.4.

Take RSGNLKRPKIGKRF [Q9Y6X4 343-356]: the normalised SPOT signal, Boehringer light units (BLU); mean over the file's lines of this peptide is 50.1.

Consider RRLQPRRPGYPPRP [Q96EZ6 93-106], for which the normalised SPOT signal, Boehringer light units (BLU); mean over the file's lines of this peptide was 325.

RQQTLPRPMKTLQR [O43161 2760-2773] came in with a normalised SPOT signal, Boehringer light units (BLU); mean over the file's lines of this peptide of 67.7.

For RRIHIKRPDDRAHL [Q9H3F6 298-311], the normalised SPOT signal, Boehringer light units (BLU); mean over the file's lines of this peptide amounted to 70.2.

The molecule RRQRPTRPPRQDKP [Q9Y520 1420-1434] showed a normalised SPOT signal, Boehringer light units (BLU); mean over the file's lines of this peptide of 3120.

Molecule RSRVPVRPPQQYSD [Q92560 382-396] yielded a normalised SPOT signal, Boehringer light units (BLU); mean over the file's lines of this peptide of 831.

In turn, RRLALRRPEILVQP [Q96M62 296-309] came in with a normalised SPOT signal, Boehringer light units (BLU); mean over the file's lines of this peptide of 31.7.

In turn, RRSPPRRPAWTLGI [Q9HDB5 8-21] gave a normalised SPOT signal, Boehringer light units (BLU); mean over the file's lines of this peptide of 1580.

The molecule AVMALRRPGERQYR [Q9P0P1 47-60] had a normalised SPOT signal, Boehringer light units (BLU); mean over the file's lines of this peptide of 206.

For RRDPPRRPPRNGYG [Q8WW30 14-28], the normalised SPOT signal, Boehringer light units (BLU); mean over the file's lines of this peptide is 5040.

In turn, RRKAPPRPPRPAAP [O60486 5-18] displayed a normalised SPOT signal, Boehringer light units (BLU); mean over the file's lines of this peptide of 9570.

The molecule RRQPPVRPGRVHLP [P31152 530-543] had a normalised SPOT signal, Boehringer light units (BLU); mean over the file's lines of this peptide of 7420.

RSSGPERPPHGLPL [Q9NPP7 72-86] came in with a normalised SPOT signal, Boehringer light units (BLU); mean over the file's lines of this peptide of 752.

In the case of RSEAPRRPSRKGLR [Q14839 1380-1393], the normalised SPOT signal, Boehringer light units (BLU); mean over the file's lines of this peptide was found to be 9710.

In turn, RRQPPARPPGPSTD [Q9BQA8 78-92] gave a normalised SPOT signal, Boehringer light units (BLU); mean over the file's lines of this peptide of 9600.

A further assay concerns the target T1, amphyphisin SH3 (AMPH_HUMAN), P49418. Nature of the assay: SPOT array.
RSRSPGRPPKSARR [Q14739 82-96] had a normalised SPOT signal, Boehringer light units (BLU); mean over the file's lines of this peptide of 154.

RRRSPPRPPSRPAR [Q96JH1 1030-1044] had a normalised SPOT signal, Boehringer light units (BLU); mean over the file's lines of this peptide of 21500.

RQPRPPRPPLGDRP [Q9Y5R2 356-370] gave a normalised SPOT signal, Boehringer light units (BLU); mean over the file's lines of this peptide of 1470.

RRARPRRPREAPAP [Q96Q34 14-27]: the normalised SPOT signal, Boehringer light units (BLU); mean over the file's lines of this peptide came out at 35.2.

The molecule RRPALHRPIKVNLL [Q9NWI3 259-272] registered a normalised SPOT signal, Boehringer light units (BLU); mean over the file's lines of this peptide of 111.

For AVPPPSRPQRLSSL [Q9NU00 50-63], the normalised SPOT signal, Boehringer light units (BLU); mean over the file's lines of this peptide was 15600.

The molecule RSKSPRRPSPTARG [Q9BZW7 5-18] had a normalised SPOT signal, Boehringer light units (BLU); mean over the file's lines of this peptide of 41.9.

With RRGSPRRPRLSSSS [P46092 337-350], the normalised SPOT signal, Boehringer light units (BLU); mean over the file's lines of this peptide is 41.2.

Consider AATQPLRPPRGTAA [P53814 641-654], for which the normalised SPOT signal, Boehringer light units (BLU); mean over the file's lines of this peptide was 11900.

Regarding RSRSLHRPAKTSEL [O95996 1839-1852], the normalised SPOT signal, Boehringer light units (BLU); mean over the file's lines of this peptide worked out at 170.

For RRNVPMKPPDEAKV [Q9H5Q5 226-240], the normalised SPOT signal, Boehringer light units (BLU); mean over the file's lines of this peptide amounted to 2290.

For RSQTPERPAKKIRE [Q9Y2N3 421-434], the normalised SPOT signal, Boehringer light units (BLU); mean over the file's lines of this peptide worked out at 283.

Consider RRSRLRRPAVRPTD [Q9BV18 42-55], for which the normalised SPOT signal, Boehringer light units (BLU); mean over the file's lines of this peptide worked out at 41.8.

Turning to RSGNLKRPKIGKRF [Q9Y6X4 343-356], the normalised SPOT signal, Boehringer light units (BLU); mean over the file's lines of this peptide came out at 13.4.

For the molecule RRLQPRRPGYPPRP [Q96EZ6 93-106], the normalised SPOT signal, Boehringer light units (BLU); mean over the file's lines of this peptide was determined as 58.2.

RQQTLPRPMKTLQR [O43161 2760-2773] showed a normalised SPOT signal, Boehringer light units (BLU); mean over the file's lines of this peptide of 79.1.

Regarding RRIHIKRPDDRAHL [Q9H3F6 298-311], the normalised SPOT signal, Boehringer light units (BLU); mean over the file's lines of this peptide was 20.8.

The molecule RRQRPTRPPRQDKP [Q9Y520 1420-1434] came in with a normalised SPOT signal, Boehringer light units (BLU); mean over the file's lines of this peptide of 6770.

For RSRVPVRPPQQYSD [Q92560 382-396], the normalised SPOT signal, Boehringer light units (BLU); mean over the file's lines of this peptide stood at 133.

For RRLALRRPEILVQP [Q96M62 296-309], the normalised SPOT signal, Boehringer light units (BLU); mean over the file's lines of this peptide is 9.3.

As to RRSPPRRPAWTLGI [Q9HDB5 8-21], the normalised SPOT signal, Boehringer light units (BLU); mean over the file's lines of this peptide stood at 88.8.

Molecule AVMALRRPGERQYR [Q9P0P1 47-60] displayed a normalised SPOT signal, Boehringer light units (BLU); mean over the file's lines of this peptide of 38.9.

For the molecule RRDPPRRPPRNGYG [Q8WW30 14-28], the normalised SPOT signal, Boehringer light units (BLU); mean over the file's lines of this peptide was 8150.

As for RRKAPPRPPRPAAP [O60486 5-18], the normalised SPOT signal, Boehringer light units (BLU); mean over the file's lines of this peptide amounted to 1450.

Regarding RRQPPVRPGRVHLP [P31152 530-543], the normalised SPOT signal, Boehringer light units (BLU); mean over the file's lines of this peptide worked out at 4120.

RSSGPERPPHGLPL [Q9NPP7 72-86] gave a normalised SPOT signal, Boehringer light units (BLU); mean over the file's lines of this peptide of 39.9.

On to RSEAPRRPSRKGLR [Q14839 1380-1393], for which the normalised SPOT signal, Boehringer light units (BLU); mean over the file's lines of this peptide was 12500.

Molecule RRQPPARPPGPSTD [Q9BQA8 78-92] registered a normalised SPOT signal, Boehringer light units (BLU); mean over the file's lines of this peptide of 1490.

The values above are taken from PMC314469, “Protein Interaction Networks by Proteome Peptide Scanning” (PLoS Biology, 2004).
